Positions of bridges follow the written chain, without caps; N, C: chain ends. Non-standard residues stand in square brackets, D forms with d. Aib = CC(C)(N)C(=O)O

The source of these data is patent US20200223889A1 (Novo Nordisk, published 2020).

Experiment [1] concerns the target T1, human melanocortin 4 receptor (human, UniProt P32245 1-332). Put plainly: cell-based or functional assay.
In experiment [2] the target is human melanocortin 1 receptor (human, UniProt Q01726 1-317). Put plainly: cell-based or functional assay.
Experiment [3] deals with T1, human melanocortin 4 receptor. Briefly: competition with 125-NDP-α-MSH, BHK human MC4R membranes. The procedure: In order to assess the binding affinity of the selected compounds for the human MC4R competitive binding assays was performed with radiolabeled NDP-alpha MSH (¹²⁵NDP-α-MSH).
The assay was performed in 96-well filterplates (Unifilter) using BHK cells stably expressing the human MC4 receptor.
The BHK cell membranes were prepared from frozen or fresh cells that were homogenized in 20 mM HEPES pH 7.1, 5 mM MgCl₂, 1 mg/ml bacitracin (buffer 1) and centrifuged at 15000 rpm at 4° C., 10 min in a Sorvall RC 5B plus, SS-34 rotor. The supernatant was discarded, and the pellets were re-suspended in buffer 1, homogenized and centrifuged two more times. The final pellets were re-suspended in buffer 1 and the protein concentration was measured and adjusted with buffer 1 to 5 mg/ml and the membrane preparation was kept at −80° C. until assay. The assay was run on a dilution of this cell membrane suspension without any further preparation. The suspension was diluted to give maximally 10% specific binding, i.e. to approx. 50-100 fold dilution, optimized after each membrane preparation. The assay was performed in a total volume of 200 μl: 50 μl of cell suspension, 50 μl of ¹²⁵NDP-α-MSH (apx. […] in final concentration), 50 μl of test compound and 50 μl binding buffer were mixed and incubated for 2 h at 25° C. (binding buffer: 25 mM HEPES, pH 7.0, 1 mM CaCl₂), 1 mM MgSO₄, 1 mM EGTA, 0.005% Tween™ 20 and 0.1% HSA or, alternatively, 0.1% ovalbumin (Sigma; catalogue No. A-5503)). Test compounds were dissolved in 100% DMSO and diluted in binding buffer in a dose range from 1 μM to 0.001 nM. Radiolabelled ligand and membranes were diluted in binding buffer. The incubation was stopped by dilution with 8×100 μl ice-cold 0.9% NaCl. The radioactivity retained on the filters was counted using a Packard Topcounter. The data were analysed by non-linear regression analysis of binding curves, using the Windows™ program GraphPad™ Prism (GraphPad Software, USA).

Sequence of human melanocortin 1 receptor (Q01726 whole entry): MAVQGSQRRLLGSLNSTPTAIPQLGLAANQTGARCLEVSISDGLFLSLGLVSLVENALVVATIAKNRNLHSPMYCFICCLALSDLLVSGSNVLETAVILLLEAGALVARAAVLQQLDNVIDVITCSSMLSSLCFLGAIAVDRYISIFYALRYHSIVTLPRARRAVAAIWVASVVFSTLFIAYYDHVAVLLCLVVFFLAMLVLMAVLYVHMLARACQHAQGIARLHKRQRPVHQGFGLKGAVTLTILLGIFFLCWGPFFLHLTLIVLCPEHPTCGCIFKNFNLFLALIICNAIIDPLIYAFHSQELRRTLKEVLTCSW
T1 sequence (P32245 whole entry): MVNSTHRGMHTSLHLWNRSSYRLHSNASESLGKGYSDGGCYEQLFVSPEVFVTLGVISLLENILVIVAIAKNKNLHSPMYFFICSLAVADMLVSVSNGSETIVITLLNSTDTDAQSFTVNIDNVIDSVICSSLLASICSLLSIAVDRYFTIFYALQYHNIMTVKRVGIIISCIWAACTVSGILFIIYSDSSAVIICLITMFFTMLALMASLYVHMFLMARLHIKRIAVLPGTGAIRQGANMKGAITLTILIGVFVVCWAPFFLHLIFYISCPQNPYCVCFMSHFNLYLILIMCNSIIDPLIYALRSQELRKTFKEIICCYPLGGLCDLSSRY

B1: Chem. 58 (peptide)
peptide: cyclo(CAH[dF]K(Ac)WCAK[dK]KW)
modifications: disulfide 1-7
SMILES: CC(=O)NCCCC[C@@H]1NC(=O)[C@@H](Cc2ccccc2)NC(=O)[C@H](Cc2c[nH]cn2)NC(=O)[C@H](C)NC(=O)[C@@H]2CSSC[C@H](NC(=O)[C@H](Cc3c[nH]c4ccccc34)NC1=O)C(=O)N[C@@H](C)C(=O)N[C@@H](CCCCN)C(=O)N[C@H](CCCCN)C(=O)N[C@@H](CCCCN)C(=O)N[C@@H](Cc1c[nH]c3ccccc13)C(=O)N2
notes: also called c[c[Cys-Ala-His-D-Phe-AcLys-Trp-Cys]-Ala-Lys-D-Lys-Lys-Trp]
As usually defined, the Ki is the dissociation constant of the complex between target and ligand, obtained from inhibition or displacement. For B1, the “MC4R cAMP EC50” value in experiment [1] is 0.11 nM. Moreover, the “MC1R cAMP EC50” value in experiment [2] is 3.93 nM. The molecule further displayed a Ki in experiment [3] of 0.09 nM.

B2: Chem. 61 (peptide)
peptide: cyclo(C[Aib]H[dF]HWCAKKKW)
modifications: disulfide 1-7
SMILES: C[C@@H]1NC(=O)[C@@H]2CSSC[C@H](NC(=O)[C@H](Cc3c[nH]c4ccccc34)NC(=O)[C@H](CCCCN)NC(=O)[C@H](CCCCN)NC(=O)[C@H](CCCCN)NC1=O)C(=O)NC(C)(C)C(=O)N[C@@H](Cc1c[nH]cn1)C(=O)N[C@H](Cc1ccccc1)C(=O)N[C@@H](Cc1c[nH]cn1)C(=O)N[C@@H](Cc1c[nH]c3ccccc13)C(=O)N2
notes: also called c[c[Cys-Aib-His-D-Phe-His-Trp-Cys]-Ala-Lys-Lys-Lys-Trp]
As for B2, the “MC4R cAMP EC50” value in experiment [1] was 0.31 nM. The “MC1R cAMP EC50” value in experiment [2] was above 1 nM. This molecule also came in with a Ki in experiment [3] of 0.22 nM.

B3: Chem. 57 (peptide)
peptide: cyclo(CAH[dF]QWCAK[dK]KW)
modifications: disulfide 1-7
SMILES: C[C@@H]1NC(=O)[C@@H]2CSSC[C@H](NC(=O)[C@H](Cc3c[nH]c4ccccc34)NC(=O)[C@H](CCC(N)=O)NC(=O)[C@@H](Cc3ccccc3)NC(=O)[C@H](Cc3c[nH]cn3)NC1=O)C(=O)N[C@@H](C)C(=O)N[C@@H](CCCCN)C(=O)N[C@H](CCCCN)C(=O)N[C@@H](CCCCN)C(=O)N[C@@H](Cc1c[nH]c3ccccc13)C(=O)N2
notes: also called c[c[Cys-Ala-His-D-Phe-Gln-Trp-Cys]-Ala-Lys-D-Lys-Lys-Trp]
As for B3, in experiment [1], the “MC4R cAMP EC50” value was 0.19 nM. Further, the “MC1R cAMP EC50” value in experiment [2] worked out at 10.4 nM. In experiment [3], affinity was put at a Ki of 0.21 nM.

B4: Chem. 95 (peptide)
peptide: cyclo(CPH[dF]HWCAKKHR)
modifications: disulfide 1-7
SMILES: C[C@@H]1NC(=O)[C@@H]2CSSC[C@H](NC(=O)[C@H](CCCNC(=N)N)NC(=O)[C@H](Cc3c[nH]cn3)NC(=O)[C@H](CCCCN)NC(=O)[C@H](CCCCN)NC1=O)C(=O)N1CCC[C@H]1C(=O)N[C@@H](Cc1c[nH]cn1)C(=O)N[C@H](Cc1ccccc1)C(=O)N[C@@H](Cc1c[nH]cn1)C(=O)N[C@@H](Cc1c[nH]c3ccccc13)C(=O)N2
notes: also called c[c[Cys-Pro-His-D-Phe-His-Trp-Cys]-Ala-Lys-Lys-His-Arg]
On to B4, for which the “MC4R cAMP EC50” value in experiment [1] is 0.22 nM. For the same molecule, in experiment [2], the “MC1R cAMP EC50” value is 87.7 nM. In addition, the Ki in experiment [3] worked out at 0.07 nM.

B5: Chem. 96 (peptide)
peptide: cyclo(CPH[dF]HWCAHKKR)
modifications: disulfide 1-7
SMILES: C[C@@H]1NC(=O)[C@@H]2CSSC[C@H](NC(=O)[C@H](CCCNC(=N)N)NC(=O)[C@H](CCCCN)NC(=O)[C@H](CCCCN)NC(=O)[C@H](Cc3c[nH]cn3)NC1=O)C(=O)N1CCC[C@H]1C(=O)N[C@@H](Cc1c[nH]cn1)C(=O)N[C@H](Cc1ccccc1)C(=O)N[C@@H](Cc1c[nH]cn1)C(=O)N[C@@H](Cc1c[nH]c3ccccc13)C(=O)N2
notes: also called c[c[Cys-Pro-His-D-Phe-His-Trp-Cys]-Ala-His-Lys-Lys-Arg]
As for B5, in experiment [1], the “MC4R cAMP EC50” value came to 0.04 nM. For the same molecule, the “MC1R cAMP EC50” value in experiment [2] was found to be 57.7 nM. This molecule also gave a Ki in experiment [3] of 0.04 nM.

B6: Chem. 75 (peptide)
peptide: cyclo(CPH[dF]HWCKKKKW)
modifications: disulfide 1-7
notes: also called c[c[Cys-Pro-His-D-Phe-His-Trp-Cys]-Lys-Lys-Lys-Lys-Trp]
For the molecule B6, the “MC4R cAMP EC50” value in experiment [1] was determined as 0.44 nM. In addition, in experiment [2], the “MC1R cAMP EC50” value was determined as 68 nM. In addition, in experiment [3], the Ki came out at 0.11 nM.

B7: Chem. 77 (peptide)
peptide: cyclo(CKH[dF]HWCKKKKW)
modifications: disulfide 1-7
SMILES: NCCCC[C@@H]1NC(=O)[C@H](CCCCN)NC(=O)[C@H](CCCCN)NC(=O)[C@@H]2CSSC[C@H](NC(=O)[C@H](Cc3c[nH]c4ccccc34)NC(=O)[C@H](CCCCN)NC1=O)C(=O)N[C@@H](CCCCN)C(=O)N[C@@H](Cc1c[nH]cn1)C(=O)N[C@H](Cc1ccccc1)C(=O)N[C@@H](Cc1c[nH]cn1)C(=O)N[C@@H](Cc1c[nH]c3ccccc13)C(=O)N2
notes: also called c[c[Cys-Lys-His-D-Phe-His-Trp-Cys]-Lys-Lys-Lys-Lys-Trp]
For the molecule B7, the “MC4R cAMP EC50” value in experiment [1] was found to be 0.46 nM. The “MC1R cAMP EC50” value in experiment [2] is 49.8 nM. In addition, in experiment [3], the affinity, expressed as Ki, was 0.72 nM.

B8: Chem. 71 (peptide)
peptide: cyclo(CPH[dF]HWCAKKKR)
modifications: disulfide 1-7
SMILES: C[C@@H]1NC(=O)[C@@H]2CSSC[C@H](NC(=O)[C@H](CCCNC(=N)N)NC(=O)[C@H](CCCCN)NC(=O)[C@H](CCCCN)NC(=O)[C@H](CCCCN)NC1=O)C(=O)N1CCC[C@H]1C(=O)N[C@@H](Cc1c[nH]cn1)C(=O)N[C@H](Cc1ccccc1)C(=O)N[C@@H](Cc1c[nH]cn1)C(=O)N[C@@H](Cc1c[nH]c3ccccc13)C(=O)N2
notes: also called c[c[Cys-Pro-His-D-Phe-His-Trp-Cys]-Ala-Lys-Lys-Lys-Arg]
For the molecule B8, the “MC4R cAMP EC50” value in experiment [1] turned out to be 0.08 nM. Also, the “MC1R cAMP EC50” value in experiment [2] is 33.2 nM. Further, affinity in experiment [3] was put at a Ki of 0.05 nM.

B9: Chem. 60 (peptide)
peptide: cyclo(CAH[dF]HWCAKKKW)
modifications: disulfide 1-7
SMILES: C[C@@H]1NC(=O)[C@@H]2CSSC[C@H](NC(=O)[C@H](Cc3c[nH]c4ccccc34)NC(=O)[C@H](Cc3c[nH]cn3)NC(=O)[C@@H](Cc3ccccc3)NC(=O)[C@H](Cc3c[nH]cn3)NC1=O)C(=O)N[C@@H](C)C(=O)N[C@@H](CCCCN)C(=O)N[C@@H](CCCCN)C(=O)N[C@@H](CCCCN)C(=O)N[C@@H](Cc1c[nH]c3ccccc13)C(=O)N2
notes: also called c[c[Cys-Ala-His-D-Phe-His-Trp-Cys]-Ala-Lys-Lys-Lys-Trp]
As for B9, the “MC4R cAMP EC50” value in experiment [1] was found to be 0.17 nM. In addition, the “MC1R cAMP EC50” value in experiment [2] came to 53.3 nM. The molecule also came in with an inhibitory constant (Ki) in experiment [3] of 0.1 nM.

B10: Chem. 84 (peptide)
peptide: cyclo(C[dK]H[dF]HWCAKKKW)
modifications: disulfide 1-7
SMILES: C[C@@H]1NC(=O)[C@@H]2CSSC[C@H](NC(=O)[C@H](Cc3c[nH]c4ccccc34)NC(=O)[C@H](CCCCN)NC(=O)[C@H](CCCCN)NC(=O)[C@H](CCCCN)NC1=O)C(=O)N[C@H](CCCCN)C(=O)N[C@@H](Cc1c[nH]cn1)C(=O)N[C@H](Cc1ccccc1)C(=O)N[C@@H](Cc1c[nH]cn1)C(=O)N[C@@H](Cc1c[nH]c3ccccc13)C(=O)N2
notes: also called c[c[Cys-D-Lys-His-D-Phe-His-Trp-Cys]-Ala-Lys-Lys-Lys-Trp]
As for B10, in experiment [1], the “MC4R cAMP EC50” value came out at 0.59 nM. Further, the “MC1R cAMP EC50” value in experiment [2] turned out to be 43.4 nM. Besides, the inhibition constant (Ki) in experiment [3] is 0.19 nM.

B11: Chem. 78 (peptide)
peptide: cyclo(CKH[dF]HWCAKKKR)
modifications: disulfide 1-7
SMILES: C[C@@H]1NC(=O)[C@@H]2CSSC[C@H](NC(=O)[C@H](CCCNC(=N)N)NC(=O)[C@H](CCCCN)NC(=O)[C@H](CCCCN)NC(=O)[C@H](CCCCN)NC1=O)C(=O)N[C@@H](CCCCN)C(=O)N[C@@H](Cc1c[nH]cn1)C(=O)N[C@H](Cc1ccccc1)C(=O)N[C@@H](Cc1c[nH]cn1)C(=O)N[C@@H](Cc1c[nH]c3ccccc13)C(=O)N2
notes: also called c[c[Cys-Lys-His-D-Phe-His-Trp-Cys]-Ala-Lys-Lys-Lys-Arg]
On to B11, for which, in experiment [1], the “MC4R cAMP EC50” value was 0.04 nM. The “MC1R cAMP EC50” value in experiment [2] came to 3.8 nM. In addition, affinity in experiment [3] was put at a Ki of 0.02 nM.

B12: Chem. 76 (peptide)
peptide: cyclo(CKH[dF]HWCAKKKW)
modifications: disulfide 1-7
SMILES: C[C@@H]1NC(=O)[C@@H]2CSSC[C@H](NC(=O)[C@H](Cc3c[nH]c4ccccc34)NC(=O)[C@H](CCCCN)NC(=O)[C@H](CCCCN)NC(=O)[C@H](CCCCN)NC1=O)C(=O)N[C@@H](CCCCN)C(=O)N[C@@H](Cc1c[nH]cn1)C(=O)N[C@H](Cc1ccccc1)C(=O)N[C@@H](Cc1c[nH]cn1)C(=O)N[C@@H](Cc1c[nH]c3ccccc13)C(=O)N2
notes: also called c[c[Cys-Lys-His-D-Phe-His-Trp-Cys]-Ala-Lys-Lys-Lys-Trp]
For the molecule B12, the “MC4R cAMP EC50” value in experiment [1] came out at 0.16 nM. Also, the “MC1R cAMP EC50” value in experiment [2] was found to be 21.8 nM. The same molecule registered a Ki in experiment [3] of 0.09 nM.
